Results taken from patent US20080220446.

T1: alkyl-β2gpi (reduced and alkylated β2-glycoprotein I), P02749
T1 chain: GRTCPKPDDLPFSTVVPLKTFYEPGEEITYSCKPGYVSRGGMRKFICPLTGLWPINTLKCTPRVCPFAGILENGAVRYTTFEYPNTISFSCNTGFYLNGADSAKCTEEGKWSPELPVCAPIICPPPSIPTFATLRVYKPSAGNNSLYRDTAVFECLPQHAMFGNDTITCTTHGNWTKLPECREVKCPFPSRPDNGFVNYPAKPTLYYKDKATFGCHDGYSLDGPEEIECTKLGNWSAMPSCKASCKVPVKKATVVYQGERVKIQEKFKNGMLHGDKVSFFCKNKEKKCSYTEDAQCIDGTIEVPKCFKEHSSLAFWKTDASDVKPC

T2: recombinant human β2-glycoprotein I (insect cells), P02749
T2 chain: T1 chain

T3: β2GPI exposed to cardiolipin (CL), P02749
T3 chain: T1 chain

T4: β2GPI purified from fresh human plasma, P02749
T4 chain: T1 chain

B1: tissue-type plasminogen activator (tPA) (protein)
chain: SYQVICRDEKTQMIYQQHQSWLRPVLRSNRVEYCWCNSGRAQCHSVPVKSCSEPRCFNGGTCQQALYFSDFVCQCPEGFAGKCCEIDTRATCYEDQGISYRGTWSTAESGAECTNWNSSALAQKPYSGRRPDAIRLGLGNHNYCRNPDRDSKPWCYVFKAGKYSSEFCSTPACSEGNSDCYFGNGSAYRGTHSLTESGASCLPWNSMILIGKVYTAQNPSAQALGLGKHNYCRNPDGDAKPWCHVLKNRRLTWEYCDVPSCSTCGLRQYSQPQFRIKGGLFADIASHPWQAAIFAKHRRSPGERFLCGGILISSCWILSAAHCFQERFPPHHLTVILGRTYRVVPGEEEQKFEVEKYIVHKEFDDDTYDNDIALLQLKSDSSRCAQESSVVRTVCLPPADLQLPDWTECELSGYGKHEALSPFYSERLKEAHVRLYPSSRCTSQHLLNRTVTDNMLCAGDTRSGGPQANLHDACQGDSGGPLVCLNDGRMTLVGIISWGLGCGQKDVPGVYTKVTNYLDWIRDNMRP
B2: factor XII (purified human factor XII from plasma) (protein)
chain: IPPWEAPKEHKYKAEEHTVVLTVTGEPCHFPFQYHRQLYHKCTHKGRPGPQPWCATTPNFDQDQRWGYCLEPKKVKDHCSKHSPCQKGGTCVNMPSGPHCLCPQHLTGNHCQKEKCFEPQLLRFFHKNEIWYRTEQAAVARCQCKGPDAHCQRLASQACRTNPCLHGGRCLEVEGHRLCHCPVGYTGAFCDVDTKASCYDGRGLSYRGLARTTLSGAPCQPWASEATYRNVTAEQARNWGLGGHAFCRNPDNDIRPWCFVLNRDRLSWEYCDLAQCQTPTQAAPPTPVSPRLHVPLMPAQPAPPKPQPTTRTPPQSQTPGALPAKREQPPSLTRNGPLSCGQRLRKSLSSMTRVVGGLVALRGAHPYIAALYWGHSFCAGSLIAPCWVLTAAHCLQDRPAPEDLTVVLGQERRNHSCEPCQTLAVRSYRLHEAFSPVSYQHDLALLRLQEDADGSCALLSPYVQPVCLPSGAARPSETTLCQVAGWGHQFEGAEEYASFLQEAQVPFLSLERCSAPDVHGSSILPGMLCAGFLEGGTDACQGDSGGPLVCEDQAAERRLTLQGIISWGSGCGDRNKPGVYTDVAYYLAWIREHTVS

How the values were obtained:
[1] = target: T1, alkyl-β2gpi (reduced and alkylated …)
[2] = target: amyloid γ-globulins (denatured human γ-globulins)
[3] = target: endostatin (EntreMed, Inc.), P39060
[4] = target: heat/acid-denatured human glucagon, P01275
[5] = target: human coagulation factor VIII (FVIII) (Aafact), P00451
[6] = target: human glucagon (Glucagen), freshly dissolved, P01275
[7] = target: native murine serum albumin (nMSA), P07724
[8] = target: T2, recombinant human β2-glycoprotein I …
[9] = target: T3, β2GPI exposed to cardiolipin (CL), …
[10] = target: T4, β2GPI purified from fresh human plasma, …
[11] = target: human modified gelatin (Gelofusine)

Chain of human glucagon (Glucagen), freshly dissolved, P01275 (P01275 53-81): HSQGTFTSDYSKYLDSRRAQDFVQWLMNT
Chain of endostatin (EntreMed, Inc.), P39060 (P39060 whole entry, looked up): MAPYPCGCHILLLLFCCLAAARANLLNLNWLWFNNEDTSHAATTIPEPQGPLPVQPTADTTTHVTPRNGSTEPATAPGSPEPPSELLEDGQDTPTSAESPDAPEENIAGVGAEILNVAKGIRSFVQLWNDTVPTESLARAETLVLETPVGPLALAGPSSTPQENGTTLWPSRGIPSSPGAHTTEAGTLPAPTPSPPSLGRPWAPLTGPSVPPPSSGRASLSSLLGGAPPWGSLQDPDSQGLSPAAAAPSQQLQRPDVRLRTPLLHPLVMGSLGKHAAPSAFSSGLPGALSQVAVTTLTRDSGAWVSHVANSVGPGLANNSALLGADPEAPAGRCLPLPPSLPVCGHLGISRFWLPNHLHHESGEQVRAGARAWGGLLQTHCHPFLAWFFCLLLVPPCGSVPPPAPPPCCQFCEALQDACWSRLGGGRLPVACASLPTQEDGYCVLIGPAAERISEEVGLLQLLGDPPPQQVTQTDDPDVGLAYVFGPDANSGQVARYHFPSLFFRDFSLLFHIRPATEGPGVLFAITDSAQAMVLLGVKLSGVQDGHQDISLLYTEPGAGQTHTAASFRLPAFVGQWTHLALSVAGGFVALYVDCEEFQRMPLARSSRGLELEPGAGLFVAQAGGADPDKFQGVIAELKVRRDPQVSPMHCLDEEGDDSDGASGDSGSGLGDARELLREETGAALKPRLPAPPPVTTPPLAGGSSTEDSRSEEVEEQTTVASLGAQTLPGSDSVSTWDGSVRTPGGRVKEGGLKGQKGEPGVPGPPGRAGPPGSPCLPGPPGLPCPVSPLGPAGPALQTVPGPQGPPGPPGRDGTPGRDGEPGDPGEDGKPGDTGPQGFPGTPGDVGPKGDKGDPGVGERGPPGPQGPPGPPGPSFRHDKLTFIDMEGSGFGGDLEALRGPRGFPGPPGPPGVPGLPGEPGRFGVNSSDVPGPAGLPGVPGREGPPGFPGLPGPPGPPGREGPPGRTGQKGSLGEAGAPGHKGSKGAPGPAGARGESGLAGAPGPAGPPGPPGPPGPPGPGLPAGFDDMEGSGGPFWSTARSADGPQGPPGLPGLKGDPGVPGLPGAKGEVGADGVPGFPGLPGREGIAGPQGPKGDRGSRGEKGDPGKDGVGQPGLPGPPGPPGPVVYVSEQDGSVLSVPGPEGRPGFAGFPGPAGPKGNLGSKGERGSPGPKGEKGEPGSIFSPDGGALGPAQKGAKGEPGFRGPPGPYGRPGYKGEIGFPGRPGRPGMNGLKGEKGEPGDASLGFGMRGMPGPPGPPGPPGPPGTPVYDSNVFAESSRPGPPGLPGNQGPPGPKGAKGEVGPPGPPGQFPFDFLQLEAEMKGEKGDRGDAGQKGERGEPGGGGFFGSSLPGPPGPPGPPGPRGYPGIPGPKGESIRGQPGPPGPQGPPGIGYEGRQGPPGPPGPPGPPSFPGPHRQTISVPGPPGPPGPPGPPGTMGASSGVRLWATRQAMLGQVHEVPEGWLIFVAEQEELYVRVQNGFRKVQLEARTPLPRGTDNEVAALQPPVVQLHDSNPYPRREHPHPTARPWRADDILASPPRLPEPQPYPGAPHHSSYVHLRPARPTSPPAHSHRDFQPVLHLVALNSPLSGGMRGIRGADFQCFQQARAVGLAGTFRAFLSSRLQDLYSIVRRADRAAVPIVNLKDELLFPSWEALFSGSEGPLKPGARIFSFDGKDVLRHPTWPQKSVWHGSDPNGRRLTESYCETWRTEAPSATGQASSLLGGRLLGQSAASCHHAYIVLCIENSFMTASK
Chain of native murine serum albumin (nMSA), P07724 (P07724 25-608): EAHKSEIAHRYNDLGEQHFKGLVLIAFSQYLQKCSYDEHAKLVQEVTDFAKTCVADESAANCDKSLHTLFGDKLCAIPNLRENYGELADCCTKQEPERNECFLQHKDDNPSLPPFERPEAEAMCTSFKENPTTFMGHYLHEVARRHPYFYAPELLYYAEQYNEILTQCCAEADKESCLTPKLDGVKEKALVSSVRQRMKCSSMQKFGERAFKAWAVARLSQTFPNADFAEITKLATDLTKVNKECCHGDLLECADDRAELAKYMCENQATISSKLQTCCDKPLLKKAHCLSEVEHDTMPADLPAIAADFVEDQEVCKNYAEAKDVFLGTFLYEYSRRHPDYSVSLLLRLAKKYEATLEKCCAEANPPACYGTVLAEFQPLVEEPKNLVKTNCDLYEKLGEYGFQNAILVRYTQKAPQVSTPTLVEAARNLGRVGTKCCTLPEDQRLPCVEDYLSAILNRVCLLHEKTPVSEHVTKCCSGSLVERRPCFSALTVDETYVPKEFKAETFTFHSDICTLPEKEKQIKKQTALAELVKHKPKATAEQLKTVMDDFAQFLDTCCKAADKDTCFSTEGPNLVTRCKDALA
Chain of human coagulation factor VIII (FVIII) (Aafact), P00451 (P00451 whole entry, looked up): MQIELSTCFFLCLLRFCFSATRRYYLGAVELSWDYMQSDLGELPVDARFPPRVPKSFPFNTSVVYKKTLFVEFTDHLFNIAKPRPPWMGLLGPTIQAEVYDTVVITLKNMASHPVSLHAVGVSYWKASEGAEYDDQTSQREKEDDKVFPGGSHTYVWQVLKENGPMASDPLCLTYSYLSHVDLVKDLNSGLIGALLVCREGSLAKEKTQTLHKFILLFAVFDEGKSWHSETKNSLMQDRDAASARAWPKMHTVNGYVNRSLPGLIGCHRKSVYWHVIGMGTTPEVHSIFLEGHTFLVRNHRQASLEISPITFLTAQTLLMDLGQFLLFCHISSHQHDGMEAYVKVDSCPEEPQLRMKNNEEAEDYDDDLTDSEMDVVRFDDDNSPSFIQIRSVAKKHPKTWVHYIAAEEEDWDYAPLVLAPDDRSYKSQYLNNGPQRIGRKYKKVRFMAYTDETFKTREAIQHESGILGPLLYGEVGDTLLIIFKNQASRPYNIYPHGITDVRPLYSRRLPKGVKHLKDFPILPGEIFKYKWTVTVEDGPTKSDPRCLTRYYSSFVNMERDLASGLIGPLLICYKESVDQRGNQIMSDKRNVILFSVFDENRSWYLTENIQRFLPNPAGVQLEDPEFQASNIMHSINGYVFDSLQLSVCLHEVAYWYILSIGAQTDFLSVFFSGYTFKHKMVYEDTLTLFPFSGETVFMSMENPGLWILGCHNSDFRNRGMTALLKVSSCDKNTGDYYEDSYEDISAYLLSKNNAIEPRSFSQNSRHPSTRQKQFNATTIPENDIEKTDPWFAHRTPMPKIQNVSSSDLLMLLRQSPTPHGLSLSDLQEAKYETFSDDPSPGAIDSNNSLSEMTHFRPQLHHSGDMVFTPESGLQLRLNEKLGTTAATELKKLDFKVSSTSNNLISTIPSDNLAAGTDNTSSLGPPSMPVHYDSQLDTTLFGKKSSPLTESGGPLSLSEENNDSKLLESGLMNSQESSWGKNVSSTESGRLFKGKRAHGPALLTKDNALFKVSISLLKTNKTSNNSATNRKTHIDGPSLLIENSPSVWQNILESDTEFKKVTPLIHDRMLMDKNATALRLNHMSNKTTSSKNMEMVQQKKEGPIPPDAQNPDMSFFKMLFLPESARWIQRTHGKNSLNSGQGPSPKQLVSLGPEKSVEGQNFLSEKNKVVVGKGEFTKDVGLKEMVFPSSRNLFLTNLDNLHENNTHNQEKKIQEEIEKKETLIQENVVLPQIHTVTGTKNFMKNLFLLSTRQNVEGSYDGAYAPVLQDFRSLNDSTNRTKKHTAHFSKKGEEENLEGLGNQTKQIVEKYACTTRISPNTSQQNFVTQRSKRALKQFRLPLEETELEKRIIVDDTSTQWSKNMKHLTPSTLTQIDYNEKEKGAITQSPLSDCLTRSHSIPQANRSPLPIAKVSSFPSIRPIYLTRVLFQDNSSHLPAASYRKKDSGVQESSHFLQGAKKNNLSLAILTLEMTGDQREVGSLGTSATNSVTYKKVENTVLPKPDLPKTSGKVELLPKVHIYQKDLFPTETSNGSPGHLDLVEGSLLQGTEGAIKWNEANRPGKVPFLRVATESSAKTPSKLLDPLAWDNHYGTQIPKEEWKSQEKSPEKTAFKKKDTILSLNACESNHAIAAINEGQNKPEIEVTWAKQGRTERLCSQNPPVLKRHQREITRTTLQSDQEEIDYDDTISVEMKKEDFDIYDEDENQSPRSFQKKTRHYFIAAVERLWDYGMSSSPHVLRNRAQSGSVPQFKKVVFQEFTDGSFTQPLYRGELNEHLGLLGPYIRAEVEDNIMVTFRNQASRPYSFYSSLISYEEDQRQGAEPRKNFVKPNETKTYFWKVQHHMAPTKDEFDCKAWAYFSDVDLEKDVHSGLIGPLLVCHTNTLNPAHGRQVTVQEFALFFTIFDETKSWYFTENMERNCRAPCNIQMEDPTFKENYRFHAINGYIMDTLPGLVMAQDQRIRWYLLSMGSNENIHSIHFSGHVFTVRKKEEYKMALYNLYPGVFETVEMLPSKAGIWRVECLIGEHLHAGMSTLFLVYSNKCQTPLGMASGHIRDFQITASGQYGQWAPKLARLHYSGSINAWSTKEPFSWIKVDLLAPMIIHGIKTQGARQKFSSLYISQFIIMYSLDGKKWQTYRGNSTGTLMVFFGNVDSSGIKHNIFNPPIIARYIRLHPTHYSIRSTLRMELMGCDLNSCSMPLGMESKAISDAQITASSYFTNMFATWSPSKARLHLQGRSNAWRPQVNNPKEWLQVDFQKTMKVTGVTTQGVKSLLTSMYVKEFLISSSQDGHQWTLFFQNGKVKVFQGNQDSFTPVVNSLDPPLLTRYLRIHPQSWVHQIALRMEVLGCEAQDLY

Row | Protein | ability to activate tPA/plasminogen [1] | tPA-mediated activation of Plg (chromogenic Plg-activation assay) [2] | tPA activating properties (Plg-activation assay) [3] | tPA activation [4] | tPA activation, Max. Activation (%) (tPA-dependent plasminogen activation, % of standardized positive control) [5] | tPA activating potential [6] | tPA activation, Max. Activation (%) (tPA-dependent plasminogen activation, % of standardized positive control) [6] | stimulation of tPA activation [7] | tPA-mediated conversion of Plg to Pls (substrate S-2251) [8] | generation of plasmin from tPA/plasminogen [9] | tPA-mediated conversion of Plg to Pls (substrate S-2251) [10] | factor XII activation (chromogenic kallikrein assay) [11]
1 | B1 | Alkylation of β2gpi results in amyloid-like properties when the ability to activate tPA/plasminogen is considered | Centrifugation had no effect on the stimulatory effect of Hb-AGE and amyloid γ-globulins on tPA-mediated activation of Plg | the absence of tPA activating properties in 100 µg ml^-1 endostatin | a potent activator of tPA was obtained | 4.22 | at high glucagon concentration, also native glucagon had some tPA activating potential | 11.2 | also native MSA enhanced ThT fluorescence to some extent, but this was not reflected by stimulation of tPA activation | Recombinant β2GPI, but not β2GPI purified from fresh plasma stimulate tPA-mediated conversion of Plg to Pls | Generation of plasmin from tPA/plasminogen is accelerated when β2gpi is exposed to cardiolipin (CL-β2gpi) | Recombinant β2GPI, but not β2GPI purified from fresh plasma stimulate tPA-mediated conversion of Plg to Pls | 
2 | B2 |  |  |  |  |  |  |  |  |  |  |  | Only gelatin kept at 37 °C activated factor XII
